Measurements taken from the supplement of paper PMC5998384.

Key:
HeLa Kyoto [1] = assay: solubility in G1/S (NP-40 vs SDS abundance) (log2 ratio); higher = more soluble; settings: cell cycle stage: G1/S
HeLa Kyoto [2] = assay: melting temperature (median over replicates), in situ; higher = more thermally stable
HeLa Kyoto [3] = assay: solubility change mitosis vs G1/S (difference of NP-40 vs SDS log2 ratios) (log2 ratio difference); higher = more soluble in mitosis
HeLa Kyoto [4] = assay: thermal stability score vs G1/S (z-score of summed log2 fold changes over temperatures); higher = more thermally stable than in G1/S
[5] = cell cycle stage: early G1 (4.5 h after nocodazole release)
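Wherever melting temperature (median over replicates), in situ is given: HeLa Kyoto cells synchronized by double thymidine or nocodazole block, proteins quantified by TMT10plex mass spectrometry, three independent biological replicates.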
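Wherever solubility change mitosis vs G1/S (difference of NP-40 vs SDS log2 ratios) is given: synchronized HeLa Kyoto cells (double thymidine block for G1/S, nocodazole release for mitosis), protein amounts in NP-40 versus SDS lysates quantified by mass spectrometry, three biological replicates.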
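Wherever solubility in G1/S (NP-40 vs SDS abundance) is given: HeLa Kyoto cells arrested at G1/S by double thymidine block, proteins quantified by TMT10plex mass spectrometry in mild NP-40 versus SDS extracts, three biological replicates.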
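Wherever thermal stability score vs G1/S (z-score of summed log2 fold changes over temperatures) is given: synchronized HeLa Kyoto cells, proteins quantified by TMT10plex mass spectrometry, three biological replicates, mitosis taken 0.5 h after nocodazole release, G1/S directly after double thymidine block.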

Row | Sequence | solubility in G1/S (log2) (HeLa Kyoto [1]) | melting temperature (HeLa Kyoto [2]; cell cycle stage: G1/S) [°C] | melting temperature (HeLa Kyoto [2]; cell cycle stage: mitosis) [°C] | solubility change mitosis (log2) (HeLa Kyoto [3]) | thermal stability score (HeLa Kyoto [4]; [5]) | thermal stability score (HeLa Kyoto [4]; cell cycle stage: mitosis)
1 | MVRKKNPPLRNVASEGEGQILEPIGTESKVSGKNKEFSADQMSENTDQSDAAELNHKEEHSLHVQDPSSSSKKDLKSAVLSEKAGFNYESPSKGGNFPSFPHDEVTDRNMLAFSSPAAGGVCEPLKSPQRAEADDPQDMACTPSGDSLETKEDQKMSPKATEETGQAQSGQANCQGLSPVSVASKNPQVPSDGGVRLNKSKTDLLVNDNPDPAPLSPELQDFKCNICGYGYYGNDPTDLIKHFRKYHLGLHNRTRQDAELDSKILALHNMVQFSHSKDFQKVNRSVFSGVLQDINSSRPVLLNGTYDVQVTSGGTFIGIGRKTPDCQGNTKYFRCKFCNFTYMGNSSTELEQHFLQTHPNKIKASLPSSEVAKPSEKNSNKSIPALQSSDSGDLGKWQDKITVKAGDDTPVGYSVPIKPLDSSRQNGTEATSYYWCKFCSFSCESSSSLKLLEHYGKQHGAVQSGGLNPELNDKLSRGSVINQNDLAKSSEGETMTKTDKSSSGAKKKDFSSKGAEDNMVTSYNCQFCDFRYSKSHGPDVIVVGPLLRHYQQLHNIHKCTIKHCPFCPRGLCSPEKHLGEITYPFACRKSNCSHCALLLLHLSPGAAGSSRVKHQCHQCSFTTPDVDVLLFHYESVHESQASDVKQEANHLQGSDGQQSVKESKEHSCTKCDFITQVEEEISRHYRRAHSCYKCRQCSFTAADTQSLLEHFNTVHCQEQDITTANGEEDGHAISTIKEEPKIDFRVYNLLTPDSKMGEPVSESVVKREKLEEKDGLKEKVWTESSSDDLRNVTWRGADILRGSPSYTQASLGLLTPVSGTQEQTKTLRDSPNVEAAHLARPIYGLAVETKGFLQGAPAGGEKSGALPQQYPASGENKSKDESQSLLRRRRGSGVFCANCLTTKTSLWRKNANGGYVCNACGLYQKLHSTPRPLNIIKQNNGEQIIRRRTRKRLNPEALQAEQLNKQQRGSNEEQVNGSPLERRSEDHLTESHQREIPLPSLSKYEAQGSLTKSHSAQQPVLVSQTLDIHKRMQPLHIQIKSPQESTGDPGNSSSVSEGKGSSERGSPIEKYMRPAKHPNYSPPGSPIEKYQYPLFGLPFVHNDFQSEADWLRFWSKYKLSVPGNPHYLSHVPGLPNPCQNYVPYPTFNLPPHFSAVGSDNDIPLDLAIKHSRPGPTANGASKEKTKAPPNVKNEGPLNVVKTEKVDRSTQDELSTKCVHCGIVFLDEVMYALHMSCHGDSGPFQCSICQHLCTDKYDFTTHIQRGLHRNNAQVEKNGKPKE [TRPS1] | 0.00718 | 51.1 | 51.9 | -0.0534 | 0.487 | 0.962
2 | MAAAAGPGAALSPRPCDSDPATPGAQSPKDDNEDNSNDGTQPSKRRRMGSGDSSRSCETSSQDLGFSYYPAENLIEYKWPPDETGEYYMLQEQVSEYLGVTSFKRKYPDLERRDLSHKEKLYLRELNVITETQCTLGLTALRSDEVIDLMIKEYPAKHAEYSVILQEKERQRITDHYKEYSQMQQQNTQKVEASKVPEYIKKAAKKAAEFNSNLNRERMEERRAYFDLQTHVIQVPQGKYKVLPTERTKVSSYPVALIPGQFQEYYKRYSPDELRYLPLNTALYEPPLDPELPALDSDGDSDDGEDGRGDEKRKNKGTSDSSSGNVSEGESPPDSQEDSFQGRQKSKDKAATPRKDGPKRSVLSKSVPGYKPKVIPNAICGICLKGKESNKKGKAESLIHCSQCENSGHPSCLDMTMELVSMIKTYPWQCMECKTCIICGQPHHEEEMMFCDMCDRGYHTFCVGLGAIPSGRWICDCCQRAPPTPRKVGRRGKNSKEG [PHF10] | 0.128 | 49.5 | 49.4 | 0.132 | 1.13 | 2.91
3 | MDPTAGSKKEPGGGAATEEGVNRIAVPKPPSIEEFSIVKPISRGAFGKVYLGQKGGKLYAVKVVKKADMINKNMTHQVQAERDALALSKSPFIVHLYYSLQSANNVYLVMEYLIGGDVKSLLHIYGYFDEEMAVKYISEVALALDYLHRHGIIHRDLKPDNMLISNEGHIKLTDFGLSKVTLNRDINMMDILTTPSMAKPRQDYSRTPGQVLSLISSLGFNTPIAEKNQDPANILSACLSETSQLSQGLVCPMSVDQKDTTPYSSKLLKSCLETVASNPGMPVKCLTSNLLQSRKRLATSSASSQSHTFISSVESECHSSPKWEKDCQESDEALGPTMMSWNAVEKLCAKSANAIETKGFNKKDLELALSPIHNSSALPTTGRSCVNLAKKCFSGEVSWEAVELDVNNINMDTDTSQLGFHQSNQWAVDSGGISEEHLGKRSLKRNFELVDSSPCKKIIQNKKTCVEYKHNEMTNCYTNQNTGLTVEVQDLKLSVHKSQQNDCANKENIVNSFTDKQQTPEKLPIPMIAKNLMCELDEDCEKNSKRDYLSSSFLCSDDDRASKNISMNSDSSFPGISIMESPLESQPLDSDRSIKESSFEESNIEDPLIVTPDCQEKTSPKGVENPAVQESNQKMLGPPLEVLKTLASKRNAVAFRSFNSHINASNNSEPSRMNMTSLDAMDISCAYSGSYPMAITPTQKRRSCMPHQQTPNQIKSGTPYRTPKSVRRGVAPVDDGRILGTPDYLAPELLLGRAHGPAVDWWALGVCLFEFLTGIPPFNDETPQQVFQNILKRDIPWPEGEEKLSDNAQSAVEILLTIDDTKRAGMKELKRHPLFSDVDWENLQHQTMPFIPQPDDETDTSYFEARNTAQHLTVSGFSL [MASTL] | 0.0696 | 48.4 | 50.5 | -0.0152 | 2.99 | 5.64
4 | MWLDRRGWLRVLGHWRYDLRRPSFTRTWSGDKGPMAETVSTQVGTEGGLRASHQQNGDAGGDAKVELSPGPPKPAGREVEPAPVGGEHPSAAAPGPGKHKKRRGATRERVVPPPKKRRTGVSFGDEHFAETSYYFEGGLRKVRPYYFDFRTYCKGRWVGHSLLHVFSTEFRAQPLAYYEAAVRAGRLQLNEKPVQDLNIVLKDNDFLRNTVHRHEPPVTAEPIRLLAENEDVVVVDKPSSIPVHPCGRFRHNTVIFILGKEHQLKELHPLHRLDRLTSGVLMFAKTAAVSERIHEQVRDRQLEKEYVCRVEGEFPTEEVTCKEPILVVSYKVGVCRVDPRGKPCETVFQRLSYNGQSSVVRCRPLTGRTHQIRVHLQFLGHPILNDPIYNSVAWGPSRGRGGYIPKTNEELLRDLVAEHQAKQSLDVLDLCEGDLSPGLTDSTAPSSELGKDDLEELAAAAQKMEEVAEAAPQELDTIALASEKAVETDVMNQETDPLCAECRLVRQDPLPQDLVMFLHALRYKGPGFEYFSPMPAWAQDDWQKD [RPUSD2] | -0.0296 | 54.1 | 54.1 | 0.0172 | -1.46 | -2.6
5 | MSEAGGRGCGSPVPQRARWRLVAATAAFCLVSATSVWTAGAEPMSREEKQKLGNQVLEMFDHAYGNYMEHAYPADELMPLTCRGRVRGQEPSRGDVDDALGKFSLTLIDSLDTLVVLNKTKEFEDAVRKVLRDVNLDNDVVVSVFETNIRVLGGLLGGHSLAIMLKEKGEYMQWYNDELLQMAKQLGYKLLPAFNTTSGLPYPRINLKFGIRKPEARTGTETDTCTACAGTLILEFAALSRFTGATIFEEYARKALDFLWEKRQRSSNLVGVTINIHTGDWVRKDSGVGAGIDSYYEYLLKAYVLLGDDSFLERFNTHYDAIMRYISQPPLLLDVHIHKPMLNARTWMDALLAFFPGLQVLKGDIRPAIETHEMLYQVIKKHNFLPEAFTTDFRVHWAQHPLRPEFAESTYFLYKATGDPYYLEVGKTLIENLNKYARVPCGFAAMKDVRTGSHEDRMDSFFLAEMFKYLYLLFADKEDIIFDIEDYIFTTEAHLLPLWLSTTNQSISKKNTTSEYTELDDSNFDWTCPNTQILFPNDPLYAQSIREPLKNVVDKSCPRGIIRVEESFRSGAKPPLRARDFMATNPEHLEILKKMGVSLIHLKDGRVQLVQHAIQAASSIDAEDGLRFMQEMIELSSQQQKEQQLPPRAVQIVSHPFFGRVVLTAGPAQFGLDLSKHKETRGFVASSKPSNGCSELTNPEAVMGKIALIQRGQCMFAEKARNIQNAGAIGGIVIDDNEGSSSDTAPLFQMAGDGKDTDDIKIPMLFLFSKEGSIILDAIREYEEVEVLLSDKAKDRDPEMENEEQPSSENDSQNQSGEQISSSSQEVDLVDQESSEENSLNSHPESLSLADMDNAASISPSEQTSNPTENHETTNLNGECTDLDNQLQEQSETEEDSNPNVSWGKKVQPIDSILADWNEDIEAFEMMEKDEL [EDEM3] | 0.311 | 53.5 | 53.7 | -0.156 | 0.67 | 0.929
